From patent US20200392251A1 (University of California, published 2020) come the findings set out here.

In assay [1] the target is T1, human MMP-12 catalytic domain wild type (cdMMP-12 wt) (human, UniProt P39900 106-263).
T1 construct: biotinylated for ELISA/BLI; also called wt cdMMP-12; cdMMP-12 wide-type
Put plainly: competitive ELISA: nTIMP-2 (0.8-200 µM) premixed with 500 nM Fab LH6 (the competitor displaced), added to immobilised cdMMP-12 wt, bound Fab detected with anti-Fab-HRP (OD450) [panel B, right]. (ELISA stands for enzyme-linked immunosorbent assay.)
Protocol: (§1) On streptavidin coated ELISA plates, 5 μg/mL biotinylated cdMMPs were immobilized and incubated with two-fold serially diluted purified Fabs. Bound Fabs were detected with anti-Fab-HRP (Sigma-Aldrich), and signals were developed by TMB substrate (Thermo Scientific) and measured using a microplate reader (BioTek). […] Bound Fabs were detected using anti-Fab-HRP.

Assay [2] deals with T1, human MMP-12 catalytic domain wild type …. Kind of assay: competitive ELISA: nTIMP-2 (0.8-200 µM) premixed with 500 nM Fab LH11 (the competitor displaced), added to immobilised cdMMP-12 wt, bound Fab detected with anti-Fab-HRP (OD450) [panel B, right].
Protocol: as §1
Assay [3] concerns the target T2, human MMP-12 catalytic domain mutant D4 (cdMMP-12 D4) (human).
T2 construct: PROSS-designed expression-optimised mutant; Cytoplasmically expressed in E. coli, purified on Ni-NTA; biotinylated for ELISA/BLI; also called cdMMP-12 mutant D4; modified D4
Put plainly: competitive ELISA: nTIMP-2 (0.8-200 µM) premixed with 500 nM Fab LH11 (the competitor displaced), added to immobilised cdMMP-12 D4, bound Fab detected with anti-Fab-HRP (OD450) [panel A, right].
Protocol: as §1

The target in assay [4] is T1, human MMP-12 catalytic domain wild type …. Put plainly: BLItz bio-layer interferometry; printed as 'Affinity ... (nM)'. (BLI is a label-free optical method that tracks binding on a fibre tip over time.)
Assay [5] shares this target. Put plainly: competitive ELISA: nTIMP-2 (0.8-200 µM) premixed with 500 nM Fab LG4 (the competitor displaced), added to immobilised cdMMP-12 wt, bound Fab detected with anti-Fab-HRP (OD450) [panel B, right].
Protocol: as §1
Assay [6] deals with T2, human MMP-12 catalytic domain mutant D4 …. Kind of assay: competitive ELISA: nTIMP-2 (0.8-200 µM) premixed with 500 nM Fab LH6 (the competitor displaced), added to immobilised cdMMP-12 D4, bound Fab detected with anti-Fab-HRP (OD450) [panel A, right].
Protocol: as §1
For assay [7] the target is unchanged. Kind of assay: competitive ELISA: nTIMP-2 (0.8-200 µM) premixed with 500 nM Fab LG4 (the competitor displaced), added to immobilised cdMMP-12 D4, bound Fab detected with anti-Fab-HRP (OD450) [panel A, right].
Protocol: as §1
Assay [8] has as its target T3, catalytic domain of human MMP-14 (cdMMP-14) (human, UniProt P50281 114-320).
T3 construct: range 114-320; Produced active in E. coli periplasm; biotinylated for BLI/ELISA
Kind of assay: enzyme inhibition assay with FRET peptide substrate (M-2350), Fab titrated on cdMMP-14 [panel 2A6].
Protocol: (§2) For inhibition tests, 1 μM Fabs were 2-fold serially diluted into protease specific assay buffer and incubated with 1-10 nM proteases for 30 min at room temperature. […] Inhibition percentages at given concentrations were calculated by comparing the initial reaction rates in the presence or absence of inhibitor. […] Vₘₐₓ and Kₘ at various Fab concentrations were measured to determine the inhibition type. FRET inhibition assays were also used for selectivity tests of isolated Fabs with the relevant proteases.

In assay [9] the target is T3, catalytic domain of human MMP-14 …. Put plainly: biolayer interferometry; biotinylated protease on streptavidin sensor, Fab in solution.
Protocol: (§3) Binding kinetics of produced antibodies towards associated protease targets were analyzed by using biolayer interferometry (ForteBio). For Fabs, biotinylated proteases were immobilized on streptavidin biosensors, and Fab binding to the sensors in absence of protease was monitored as backgrounds.
The target is the same in assay [10]. Put plainly: bio-layer interferometry (ForteBio), biotinylated protease on streptavidin biosensor, Fab in solution [panel 2A6].
Protocol: as §3
Assay [11] shares this target. Put plainly: FRET peptide inhibition assay; KI=IC50/(S/Km+1).
Protocol: as §2
In assay [12] the target is T4, Aspergillus fumigatus autophagic serine protease 2 (Alp2) (Aspergillus fumigatus, UniProt P87184 136-495).
T4 construct: range 136-495; Produced active in E. coli periplasm; biotinylated for BLI
T4 sequence: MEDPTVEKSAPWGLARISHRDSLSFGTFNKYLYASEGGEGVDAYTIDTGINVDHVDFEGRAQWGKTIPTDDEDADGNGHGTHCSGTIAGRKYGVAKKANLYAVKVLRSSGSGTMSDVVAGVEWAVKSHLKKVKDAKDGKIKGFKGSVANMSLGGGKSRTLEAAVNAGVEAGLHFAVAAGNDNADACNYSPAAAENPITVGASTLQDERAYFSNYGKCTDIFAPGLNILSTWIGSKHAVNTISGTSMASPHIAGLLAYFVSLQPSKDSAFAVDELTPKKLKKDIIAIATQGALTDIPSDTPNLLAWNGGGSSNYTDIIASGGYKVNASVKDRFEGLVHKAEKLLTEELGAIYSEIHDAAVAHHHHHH
Put plainly: enzyme inhibition assay with FRET peptide substrate (Mca-[..](Dnp)), Fab titrated on Alp2 [panel A4A2].
Protocol: as §2

Assay [13] concerns the target T4, Aspergillus fumigatus autophagic serine …. Kind of assay: enzyme inhibition assay with FRET peptide substrate, Fab titrated on Alp2 [panel B].
Protocol: as §2
The target in assay [14] is T3, catalytic domain of human MMP-14 …. Kind of assay: enzyme inhibition assay with FRET peptide substrate (M-2350), Fab titrated on cdMMP-14 [panel 2B10].
Protocol: as §2
Assay [15] has the same target. Put plainly: bio-layer interferometry (ForteBio), biotinylated protease on streptavidin biosensor, Fab in solution [panel 2B10].
Protocol: as §3
Assay [16] has the same target. Put plainly: bio-layer interferometry (ForteBio), biotinylated protease on streptavidin biosensor, Fab in solution [panel 2D9].
Protocol: as §3
Assay [17] shares this target. Put plainly: enzyme inhibition assay with FRET peptide substrate (M-2350), Fab titrated on cdMMP-14 [panel 2D9].
Protocol: as §2

The EC50 is the concentration giving half of the maximal effect. A high value points to lower potency in that assay. The term Kd denotes the constant that tells how readily two partners part at equilibrium. As a reminder, the IC50 is the concentration needed to halve the response being measured. A higher IC50 goes with weaker potency. By koff is commonly meant the first-order rate constant of dissociation. Usually kon stands for a measure of how fast the partners come together. Usually Ki stands for a dissociation constant, usually derived from enzyme kinetics or from competition with a known ligand. Lower therefore signals a stronger hold on the target.

Changes are numbered by the printed parent chain.

T1 sequence (P39900 other isoform, or with tags, fused parts or gaps limits assumed): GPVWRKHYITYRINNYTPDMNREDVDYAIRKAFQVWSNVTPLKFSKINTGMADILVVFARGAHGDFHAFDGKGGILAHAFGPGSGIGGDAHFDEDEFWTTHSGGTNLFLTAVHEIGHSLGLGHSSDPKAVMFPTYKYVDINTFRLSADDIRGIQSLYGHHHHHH
T2 sequence (chain, as listed by the source mutant limits assumed): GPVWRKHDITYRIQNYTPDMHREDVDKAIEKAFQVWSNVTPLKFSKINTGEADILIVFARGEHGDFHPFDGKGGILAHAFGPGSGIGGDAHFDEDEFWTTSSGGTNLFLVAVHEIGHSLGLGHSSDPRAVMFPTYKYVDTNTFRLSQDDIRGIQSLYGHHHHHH

B1: N-terminal domain of tissue inhibitor of metalloproteinases 2 (nTIMP-2) (other, UniProt P16035 27-153, looked up)
chain: CSCSPVHPQQAFCNADVVIRAKAVSEKEVDSGNDIYGNPIKRIQYEIKQIKMFKGPEKDIEFIYTAPSSAVCGVSLDVGGKKEYLIAGKAEGDGKMHITLCDFIVPWDTLSTTQKKSLNHRYQMGCE
notes: domain: N-terminal domain; Periplasmically expressed and purified as reported elsewhere
As for B1, the EC50 is 32000 nM in assay [1]; 26000 nM in assay [2]; 18000 nM in assay [3]; 44000 nM in assay [5]; 23000 nM in [6]; 42000 nM in assay [7]. This molecule had a Kd in assay [4] of 150 nM.

B2: anti-MMP-14 Fab 2A6 (Fab, V domains shown)
VH: EVQLVESGGGLVQPGGSLRLSCAASGFNFSSSSIHWVRQAPGKGLEWVASISSSYGYTYYADSVKGRFTISADTSKNTAYLQMNSLRAEDTAVYYCARVVRMLPVRCIPRCIKTTLPLYGMDYWGQGTLVTVSS
VL: DIQMTQSPSSLSASVGDRVTITCRASQSVSSAVAWYQQKPGKAPKLLIYSASSLYSGVPSRFSGSRSGTDFTLTISSLQPEDFATYYCQQSSFPFTFGQGTKVEIKR
notes: Fab from a synthetic human Fab library, produced in E. coli periplasm; also called Clone 2A6
Molecule B2 registered an IC50 in [8] of 480 nM. In addition, the Kd in assay [9] amounted to 130 nM. In [10], this molecule returned a koff of 0.003 s⁻¹ and a kon of 24000 M⁻¹ s⁻¹. In assay [11], this molecule showed a Ki of 430 nM.

B3: anti-Alp2 Fab A4A2 (Fab, V domains shown)
VH: EVQLVESGGGLVQPGGSLRLSCAASGFNLSSSSMHWVRQAPGKGLEWVASIYPSYSYTYYADSVKGRFTISADTSKNTAYLQMNSLRAEDTAVYYCARKTSDQYLLVGGSFFKLRDCCYVMDYWGQGTLVTVSS
VL: B2 VL with S91A, F93H, P94L, F95I
notes: Fab from a synthetic human Fab library, produced in E. coli periplasm; also called Clone A4A2
Molecule B3 returned an IC50 in assay [12] of 250 nM.

B4: anti-Alp2 Fab A4A1 (Fab, V domains shown)
VH: EVQLVESGGGLVQPGGSLRLSCAASGFNISSYYIHWVRQAPGKGLEWVASIYSYSSYTYYADSVKGRFTISADTSKNTAYLQMNSLRAGDTAVYYCARFGSWSYAIDYWGQGTLVTVSS
VL: B2 VL with S91A, F93H, P94L, F95I
notes: Fab from a synthetic human Fab library, produced in E. coli periplasm; also called Clone A4A1
Molecule B4 returned an IC50 in [13] of 15 nM.

B5: anti-MMP-14 Fab 2B10 (Fab, V domains shown)
VH: EVQLVESGGGLVQPGGSLRLSCAASGFNIYYSYMHWVRQAPGKGLEWVASIYPSYGYTYYADSVKGRFTISADTSKNTAYLQMNSLRAEDTAVYYCARQLFACWRQSILTPPLLSAMMMGYAMDYWGQGTLVTVSS
VL: DIQMTQSPSSLSASVGDRVTITCRASQSVSSAVAWYQQKPGKAPKLLIYSASSLYSGVPSRFSGSRSGTDFTLTISSLQPEDFATYYCQQYSVAYVWLITFGQGTKVEIKR
notes: Fab from a synthetic human Fab library, produced in E. coli periplasm; also called Clone 2B10
On to B5, for which, in assay [14], half-maximal inhibition (IC50) was put at 240 nM. For the same molecule, in [15], the off-rate (koff) worked out at 0.0018 s⁻¹ and the on-rate (kon) turned out to be 40000 M⁻¹ s⁻¹. Moreover, binding in [9] was characterised by a dissociation constant (Kd) of 46 nM. For the same molecule, the inhibitory constant (Ki) in assay [11] was determined as 210 nM.

B6: anti-MMP-14 Fab 2D9 (Fab, V domains shown)
VH: EVQLVESGGGLVQPGGSLRLSCAASGFNISSSSMHWVRQAPGKGLEWVASIYPYYGYTYYADSVKGRFTISADTSKNTAYLQMNSLRAEDTAVYYCARGVTRFTNDASVGQVWAGAYGMDYWGQGTLVTVSS
VL: DIQMTQSPSSLSASVGDRVTITCRASQSVSSAVAWYQQKPGKAPKLLIYSASSLYSGVPSRFSGSRSGTDFTLTISSLQPEDFATYYCQQSSYSLITFGQGTKVEIKR
notes: Fab from a synthetic human Fab library, produced in E. coli periplasm; also called Clone 2D9
B6: in assay [16], the koff worked out at 0.0039 s⁻¹ and the on-rate (kon) is 15000 M⁻¹ s⁻¹. The molecule further displayed a dissociation constant Kd in assay [9] of 260 nM. The molecule also returned a concentration for half-maximal inhibition (IC50) in assay [17] of 260 nM. The Ki in assay [11] was 230 nM.
